Measurements taken from PMC4059916 (2014).
One block for each binder: values may come before it.

B2: VARP451-640His6 (first ankyrin repeat domain, ANKRD1), wild type (domain or fragment)
chain: PSVVTPFSRDDRGHTPLHVAAVCGQASLIDLLVSKGAMVNATDYHGATPLHLACQKGYQSVTLLLLHYKASAEVQDNNGNTPLHLACTYGHEDCVKALVYYDVESCRLDIGNEKGDTPLHIAARWGYQGVIETLLQNGASTEIQNRLKETPLKCALNSKILSVMEAYHLSFERRQKSSEAPVQSPQRSVD

Experiments:
Assay in all cases: ITC
[1] = biological target: T1, Rab32 1-225 (Q85L), GTP hydrolysis-defective mutant, GST removed (UniProt Q13637 1-225, Q85L)
T1 sequence: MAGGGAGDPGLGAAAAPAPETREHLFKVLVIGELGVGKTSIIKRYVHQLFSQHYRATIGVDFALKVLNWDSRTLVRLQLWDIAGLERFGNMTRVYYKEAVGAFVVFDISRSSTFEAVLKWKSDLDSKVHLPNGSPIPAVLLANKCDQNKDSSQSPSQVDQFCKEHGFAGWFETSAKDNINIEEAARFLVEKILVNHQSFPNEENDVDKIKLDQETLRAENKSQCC

[2] = biological target: Rab32(Q85L) mutated at M91/R93 (Switch-II), GST removed, as used in ITC (UniProt Q13637 1-225, Q85L)
[3] = biological target: B2

- Kd [1]: > 300 µM
B1: VARP451-640His6 Q509A/Y550A (domain or fragment)
chain: PSVVTPFSRDDRGHTPLHVAAVCGQASLIDLLVSKGAMVNATDYHGATPLHLACQKGYASVTLLLLHYKASAEVQDNNGNTPLHLACTYGHEDCVKALVAYDVESCRLDIGNEKGDTPLHIAARWGYQGVIETLLQNGASTEIQNRLKETPLKCALNSKILSVMEAYHLSFERRQKSSEAPVQSPQRSVD

Binder: B2
- Kd [2]: > 300 µM

- Kd [3]: 13 µM
B3: Rab32 (Q85L/G89T/N90S/V94L) (protein)
chain: MAGGGAGDPGLGAAAAPAPETREHLFKVLVIGELGVGKTSIIKRYVHQLFSQHYRATIGVDFALKVLNWDSRTLVRLQLWDIAGLERFTSMTRLYYKEAVGAFVVFDISRSSTFEAVLKWKSDLDSKVHLPNGSPIPAVLLANKCDQNKDSSQSPSQVDQFCKEHGFAGWFETSAKDNINIEEAARFLVEKILVNHQSFPNEENDVDKIKLDQETLRAENKSQCC
modifications: Construct limits taken from the parent Rab32 1-225 (PDB 4CYM entity 1); Mg2+ and GTP-analogue state (GppCp or GTPgammaS) presumed
